The values below come from US20130064825A1.

For assay [1], the target named is cynomolgus monkey PCSK9, V5-6xHIS tagged (cynomolgus monkey). Briefly: SPR (Biacore 2000), antibody amine-coupled on CM5 chip, PCSK9 injected, pH 7.4.
The target is the same in assay [2]. Briefly: KinExA solution equilibrium, PCSK9-coated beads. In general terms: Kinetic exclusion samples the free partner from a solution-phase mixture.

For the substance 31H4, anti-PCSK9 huIgG4 (antibody), the Kd (as a rule, the free concentration of one partner at which half of the binding sites on the other are occupied at equilibrium, for simple one-to-one binding) in assay [1] turned out to be 0.19 nM; in assay [2], 0.002 nM.
